This experiment relates to bone marrow-derived dendritic cells (BMDCs). Nature of the experiment: Antigen uptake by BMDCs (confocal microscopy; OVA-Rhod). Type of experiment: cell-based. Conditions: 1 h, 37 °C, OVA-Rhod 2.5 µg mL^-1 (soluble) or Comp./OVA = 10:1 w/w. The method, then: Figure 5 Vaccine promoting antigen uptake by BMDCs. […] Magnification: 63 ×. (B) The percentage of OVA-Rhod-positive cells is shown. (C) Total fluorescence intensity of OVA-Rhod was measured; total fluorescence intensity (FI) = % of positive cells × mean fluorescence intensity. The bars shown represent the mean ± SE, and differences among groups were determined using one-way ANOVA. The asterisks indicate the significance of differences between the Vac-1 group and the indicated group. *: p < 0.05, **: p < 0.01.

B1: RBITC-OVA: OVA labelled with Rhodamine b isothiocyanate, soluble (protein, UniProt P01012 2-386, looked up)
Ovalbumin: GSIGAASMEFCFDVFKELKVHHANENIFYCPIAIMSALAMVYLGAKDSTRTQINKVVRFDKLPGFGDSIEAQCGTSVNVHSSLRDILNQITKPNDVYSFSLASRLYAEERYPILPEYLQCVKELYRGGLEPINFQTAADQARELINSWVESQTNGIIRNVLQPSSVDSQTAMVLVNAIVFKGLWEKAFKDEDTQAMPFRVTEQESKPVQMMYQIGLFRVASMASEKMKILELPFASGTMSMLVLLPDEVSGLEQLESIINFEKLTEWTSSNVMEERKIKVYLPRMKMEEKYNLTSVLMAMGITDVFSSSANLSGISSAESLKISQAVHAAHAEINEAGREVVGSAEAGVDAASVSEEFRADHPFLFCIKHIATNAVLFFGRCVSP
modifications: rhodamine B isothiocyanate label
notes: OVA labelled with Rhodamine b isothiocyanate, soluble
With B1, the “uptake of RBITC-OVA by DCs” value is reported as “poor uptake”.

The record behind these values is article PMC6929975, “A supramolecular protein chaperone for vaccine delivery” (Theranostics, 2020).
